Reference: the DeepSol protein solubility set

Test: soluble on expression in E. coli; label from the status in PepcDB or PDB records

| Sequence | soluble on expression in E. coli |
| --- | --- |
| MSKNLLIELGLEELPAYVVTPSEKQLGERLATFLTENRLSFEDIQTFSTPRRLAVRVSGLADQQTDLTEDFKGPAKKIALDADGNFSKAAQGFVRGKGLTTDAIEFREVKGEEYVYVTKHEAGKPAKEVLLGVTEVLSAMTFPVSMHWANNSFEYIRPVHTLTVLLNDEALELDFLDIHSGRVSRGHRFLGTETTITSADSYEADLRSQFVIADAKERQEMIVEQIKTLEVEQGVQVDIDEDLLNEVLNLVEFPTAFMGSFEAKYLDVPEEVLVTSMKNHQRYFVVRDQAGHLMPNFVSVRNGNDQAIENVIKGNEKVLVARLEDGEFFWREDQKLQIADLVAKLTNVTFHEKIGSLAEHMDRTRVIAASLAKEANLSAEEVTAVDRAAQIYKFDLLTGMVGEFDELQGIMGEKYALLAGEDAAVATAIREHYLPDAAGGALPETKVGAVLALAAKLDTLLSFFSVGLIPSGSNDPYALRRATQGIVRILDHFGWRIPMDKLVDSLYDLSFDSLTYANKADVMNFIRARVDKMMGKAAPKDIREAILASSTFV | not soluble |
| MSKPMKILLANPRGFCAGVDRAISIVERALELYQPPIYVRHEVVHNRFVVEGLKQRGARFVEELNEVPDDNIVIFSAHGVSQAVRQEAKERSLTVFDATCPLVTKVHMEVARASRKHMEVVLIGHAGHPEVEGTMGQYASDTGGMYLVEKPEDVVSLQAKVKDPSNLHYVSQTTLSVDETADVIDELRRVFPKIQGPRKDDICYATQNRQDAVRILAEQVDVMVVVGSKNSSNSTRLKELAEKLGTPGYLIDCPQDIDPEWFVDAQLIGVTAGASAPEELVNQILDRIKELGATSVEEVLGREENMFFEVPKELQIKQVD | soluble |
| MSKTHPPELKKYMDKEMDLKLNGNRRVSGILRGFDPFMNMVIDEAVEYQKDGGSVNLGMTVIRGNSVVIMEPKERIS | not soluble |
| MSKTTQSRETTLAGHPVEYEVRRSEDATEPRIDIDIRGVTVVLPAESEESPEALLSENLNWVLETKRTYERHRERAPERRFEPGAAFPYLGDDHEIVVEPRPAHGVGDGEIRLRQSTVDQSSLKRVLENFYRSRAREHLTDRTDALADSMNHTYDRIELRNQRTRWGSCSTNGVLSFNWRLVMAPPDVIDYVVVHELAHLRESGHNDRFWRLVEMEIPEYRELSDWLDTNSVDLIFSKDDLLEHHHHHH | soluble |
| MSLAADTPTTCCFSYTSRQIPQNFIADYFETSSQCSKPGVIFLTKRSRQVCADPSEEWVQKYVSDLELSA | soluble |
| MSLAANTQDVEITIPQGASLYQVSERLYDEGVIRSRLWFRYQGKISQADRNIRPGAYTFSPDTDLEEIFTLLQKGVPEQPVIMTIPEGFTLYEIAQRVESLGFGLAEEFIKATQDYFKSRDYSFDTSELYFEMEGYLYPDTYHLKKNQDMKAIVHSLVSPIDAFFSEEYIKRAEELGLSLHEVLTIASIIEREAYHDEERATVSGVIFNRLGIRMSLQIDATVIYGLGEGKEHRNRVLYADLETPNPFNTYMNTGIPPGPIAAPSKASIHATLYPEDHSYLYYVLGEGGHVFSETYQEHLKHVDAYRRRINEGHHHHHH | not soluble |
| MSLAASKGNLLSPDRILTVAHRGASGYVPEHTILSYETAQKMKADFIELDLQMTKDGKLIVMHDEKLDRTTNGMGWVKDHTLADIKKLDAGSWFNEAYPEKAKPQYVGLKVPTLEEVLDRFGKHANYYIETKSPDTYPGMEEKLIASLQKHKLLGKHSKPGQVIIQSFSKESLVKVHQLQPNLPTVQLLEAKQMASMTDAALEEIKTYAVGAGPDYKALNQENVRMIRSHGLLLHPYTVNNEADMHRLLDWGVTGVFTNYPDLFHKVKKGYEGHHHHHH | soluble |
| MSLAATNKRHSTSDKMHFPRSSLQPITTLGKSEFGEVFLAKAQGLEEGVAETLVLVKSLQSKDEQQQLDFRRELEMFGKLNHANVVRLLGLCREAEPHYMVLEYVDLGDLKQFLRISKSKDEKLKSQPLSTKQKVALCTQVALGMEHLSNNRFVHKDLAARNCLVSAQRQVKVSALGLSKDVYNSEYYHFRQAWVPLRWMSPEAILEGDFSTKSDVWAFGVLMWEVFTHGEMPHGGQADDEVLADLQAGKARLPQPEGCPSKLYRLMQRCWALSPKDRPSFSEIASALGDSTVDSKEGHHHHHH | soluble |
| MSLADKRIGILVYDGVLTSDVTAPLEVFGVASRLTWFSDYEVLTISVSDQKTITTEEGLEIGVDAWIGDQPELDVLVLTSSYDMDALIENKDLIHFIQTTSKAADWMASNCSGAYLLAEAGLLNGKKATTWAGGENGLQKDYPAVDVQFNQNFVVDDGVITSNGSLVSYQAALKLLHLMTSESKAQEVADALQYSRFSTEGHHHHHH | soluble |
| MSLADPIKIGVIAEAQAIAGASIPQAAQLAAEEINAKGGIDGRKIEIVSYDNHSSSADSVRAFQRAVNEDKVNAVIASYISEVVLALMPWASRLKTPFVTPGAASNEITKAINKDYEKNKYTFHGYLTSGELAQSVCDAAKDLLVDARQMKSAVIMSEDAAWTKPLDVGYQECLPKVGLKVLDHIRFSPDTTDFTPIFNKIEGSKPDVIITGISHVGVQPTVQWKNQQVPIPMFGIASQATNETFGKDTNNASDGVLYQGVSGPGVAVTSKSVPFAENFKKKYGNYPSYAGYTAYDEVYYIAEAVKRAGSTDGEKLVEALEKTDYEGTIGRVQFYGKDEPFTHGLKYGKGLLTGLMLQWQDGKQVAVWPPEVAKAEGHHHHHH | soluble |
| MSLADRLLDIKRIYHEPGIERFPRARAVLERYPDAERVEVLSHQAIPGLYGNEGNVEDWVRNKREVMVIGEKKSLSARRNERSSDWIAPSTANGCAMACSYCYVPRRKGYANPITVFANIEKITGYLERHAARQGAKPEPNQCDPIDWVYDIGENSDCSADAMVSDNVRDLVDLFGRIPNAKASFATKLVNRDLLTYEPRGGTRVRFSLMPAETSRLVDVRTSKISDRIAAIDDFVEAGYEVHLNFSPVIVHENWIADWADLLEQIADQTNDRTRRQLAAEVIFLTHNEGLHDVNLGWHPKGEELLWRPDLQQLKRSQSGQWNVRYKSPWKGKWVQQMTDLVADRLPDCRIRYAEGHHHHHH | not soluble |
| MSLADVILHAFNWPYATVEARAKQIADAGYRKVLVAPAYRSEGSAWWARYQPQDIRLIDNPLGDTAAFKKMVQALASNGVETYADIVFNHMANEAATRSDLNYPGGAVLSQYAANPGRYDSLRLFGTLQSNFLSASDFGPAQCISNYNDAYQVRNYRICGGGSDPGLPDLLGNDWVVQQQRAYLQALKSMGVTGFRVDAAKHMTFDHLNRVFDAGIRSGVYVFGEVITGGGTGNGDYDQFLAPYLQSTPHAAYDFPLFNAVRNAFAIGASMQQLVDPAASGQALPGNRAVTFAVTHDIPNNAGFRYAILDPVDETLAYAYLIGRNGGMPMLYTDNNESGDNRWVNAYLRDDLRRMIGFHNGVQGTDMQVLSSSSCHILFRRGSLGIVGINKCGNPVTTTVGMNNSVLYWNADYVDALGSGNVVRISSSSYTFTLPARGARMWRREGHHHHHH | not soluble |
| MSLAEGGFVDDAKASFNLRNFYINRNFVDPANPQGKAEEWTQSFILDARSGFTQGTIGFGVDMLGLYSLKLDGGKGTAGTHLLPVHDDGRPADDFGRLGVALKARLSQTELKVGEWMPVLPILRSDDGRSLPQTFRGGQLTSRELDGLTLYAGQFRGNSPRNDASMEDMFMQGRTGITSDRFNFAGGEYTFNDKRTMLGLWNAQLKDIYRQQYVNLVHSQPLGEWTLGANLGYFLGKEDGSARAGDLDNRTASAMLSARYKGHTFYIGLQKVSGDDAWMRVNGTSGGTLANDSYNASFDNAKERSWQLRHDFNFVTVGLPGLTLMNRYIKGDNVHTSAVDDGKEWARETELAYVVQSGVFKDLSVKWRNSTMRRDFSSNAFDENRVIVSYPLNLLEGHHHHHH | soluble |
| MSLAEPRYKADIGGGSLKLPESRIIAGLLLEGVTEDQWRHAIEVENVLQRRSPGTAKRQSSLMRNRLETMGPELWQMVRDGSTQVAIQAVFAAAIKHSTLLGDFLDLVVRDQFRMFRPDLPRKMWDQYLEQCRNRDPLMPVWQDSTANKLADCVYRILVEVGYITDSKTYRLKSVRISGEVMSYLRENNEQYVIRCIQVSIEGHHHHHH | soluble |
